Results published in the supplement of paper PMC9876800.

Tested on: peptide library, one residue held at a place counted from the S/T acceptor
Assay: relative phosphorylation of the sub-library (ratio to the mean residue at this position); higher = residue favoured
Settings: human
Outline: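 Relative sub-library phosphorylation, a ratio to the mean residue at that position, was obtained by phosphorimaging and densitometry of spots on streptavidin membranes. Before capture, purified recombinant kinases were incubated for 90 min under kinase-specific conditions with 50 μM biotinylated degenerate peptide sub-libraries and 50 μM ATP spiked with γ-32P-ATP. Each sub-library fixed one residue at one position around a central Ser/Thr.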

Chain of DYRK1B, construct: Full length (Q9Y463 whole entry, looked up): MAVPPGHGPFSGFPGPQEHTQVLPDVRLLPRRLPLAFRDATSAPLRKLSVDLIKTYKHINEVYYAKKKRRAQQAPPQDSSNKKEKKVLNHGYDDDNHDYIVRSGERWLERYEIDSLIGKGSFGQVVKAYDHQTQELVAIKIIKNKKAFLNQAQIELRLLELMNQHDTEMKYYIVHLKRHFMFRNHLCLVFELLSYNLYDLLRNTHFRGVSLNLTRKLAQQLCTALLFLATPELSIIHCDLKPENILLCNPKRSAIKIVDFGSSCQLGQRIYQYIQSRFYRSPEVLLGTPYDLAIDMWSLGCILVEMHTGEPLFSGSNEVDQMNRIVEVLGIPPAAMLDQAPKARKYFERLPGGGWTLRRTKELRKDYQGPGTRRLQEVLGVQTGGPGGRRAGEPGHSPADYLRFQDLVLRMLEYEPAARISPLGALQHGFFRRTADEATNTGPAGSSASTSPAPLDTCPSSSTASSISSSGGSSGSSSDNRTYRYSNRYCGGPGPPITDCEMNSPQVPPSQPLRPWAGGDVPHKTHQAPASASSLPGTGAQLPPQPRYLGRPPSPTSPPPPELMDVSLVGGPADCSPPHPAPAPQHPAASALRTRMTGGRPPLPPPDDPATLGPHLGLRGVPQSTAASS
Chain of TGFBR2, construct: aa190-end (P37173 190-567, looked up): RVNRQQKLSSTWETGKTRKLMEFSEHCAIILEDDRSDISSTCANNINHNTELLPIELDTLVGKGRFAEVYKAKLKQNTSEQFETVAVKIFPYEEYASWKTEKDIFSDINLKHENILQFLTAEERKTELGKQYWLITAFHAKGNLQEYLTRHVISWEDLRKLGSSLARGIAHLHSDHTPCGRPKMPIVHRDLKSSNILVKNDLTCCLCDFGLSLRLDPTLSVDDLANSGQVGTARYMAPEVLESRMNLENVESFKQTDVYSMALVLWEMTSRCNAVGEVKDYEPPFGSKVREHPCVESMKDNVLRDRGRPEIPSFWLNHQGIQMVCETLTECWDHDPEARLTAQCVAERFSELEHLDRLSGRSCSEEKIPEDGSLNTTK
Chain of SNRK, construct: aa1-505 (Q9NRH2 1-505, looked up): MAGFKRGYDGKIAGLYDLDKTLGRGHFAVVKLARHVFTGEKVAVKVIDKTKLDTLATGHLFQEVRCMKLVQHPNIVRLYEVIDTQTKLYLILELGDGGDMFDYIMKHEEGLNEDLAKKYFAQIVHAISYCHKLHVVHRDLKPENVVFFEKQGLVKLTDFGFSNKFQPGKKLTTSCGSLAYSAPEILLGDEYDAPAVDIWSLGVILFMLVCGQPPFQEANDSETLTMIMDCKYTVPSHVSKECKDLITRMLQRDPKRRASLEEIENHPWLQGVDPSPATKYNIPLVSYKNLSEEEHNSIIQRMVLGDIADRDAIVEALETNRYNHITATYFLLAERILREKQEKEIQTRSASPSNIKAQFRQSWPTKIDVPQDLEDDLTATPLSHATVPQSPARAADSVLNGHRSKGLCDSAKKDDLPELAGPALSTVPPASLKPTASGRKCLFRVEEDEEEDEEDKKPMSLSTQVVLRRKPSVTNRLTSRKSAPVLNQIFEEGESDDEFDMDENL
Chain of AKT2, construct: Full length (P31751 whole entry, looked up): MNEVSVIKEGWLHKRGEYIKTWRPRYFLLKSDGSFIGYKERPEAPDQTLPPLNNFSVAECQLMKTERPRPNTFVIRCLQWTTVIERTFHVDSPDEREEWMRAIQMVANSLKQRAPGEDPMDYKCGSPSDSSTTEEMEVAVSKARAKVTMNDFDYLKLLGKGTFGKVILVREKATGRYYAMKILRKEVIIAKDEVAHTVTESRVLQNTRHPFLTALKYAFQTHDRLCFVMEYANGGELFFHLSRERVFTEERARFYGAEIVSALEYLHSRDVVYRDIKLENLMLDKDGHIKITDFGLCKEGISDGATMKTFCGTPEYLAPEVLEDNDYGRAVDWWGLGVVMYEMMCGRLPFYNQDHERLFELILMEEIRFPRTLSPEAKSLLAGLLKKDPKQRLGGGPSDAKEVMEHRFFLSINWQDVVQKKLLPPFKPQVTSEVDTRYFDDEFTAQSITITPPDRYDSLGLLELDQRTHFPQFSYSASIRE

AKT2, construct: Full length (from UniProt P31751)
relative phosphorylation
Settings	at +1	at +2	at +3	at +4	at -1	at -2	at -3	at -4	at -5
A fixed	0.789	1.29	1.06	0.923	0.951	0.988	0.523	1.15	1.09
D fixed	0.487	0.644	0.589	0.615	0.663	0.303	0.213	0.571	0.519
E fixed	0.448	0.575	0.584	0.595	0.457	0.304	0.231	0.647	0.536
F fixed	1.78	0.673	0.86	0.681	0.795	0.446	0.288	0.7	0.931
G fixed	0.854	1.36	1.27	1.23	1.16	0.615	0.351	1.19	1.05
H fixed	0.947	1.76	1.39	1.15	1.28	0.822	0.546	1.03	1.04
I fixed	1.14	0.734	0.617	0.687	0.43	0.438	0.274	0.661	0.711
K fixed	1.02	1.33	1.79	1.96	1.36	2.83	1.91	1.98	1.67
L fixed	1.11	0.872	0.859	0.736	0.772	0.784	0.29	0.797	0.838
M fixed	1.35	0.8	0.735	0.814	0.984	0.488	0.291	0.888	0.872
N fixed	1.1	1.23	0.919	1.06	1.67	0.547	0.304	0.914	0.807
P fixed	0.722	0.925	1.02	1.64	1.12	0.385	0.34	0.972	1.02
Q fixed	1.19	0.881	0.964	1.11	1.12	0.657	0.48	0.986	0.841
R fixed	1.12	1.41	1.82	1.68	1.61	6.03	10.1	2.35	2.51
V fixed	1.01	0.92	0.743	0.64	0.523	0.486	0.275	0.701	0.736
W fixed	0.972	0.723	0.888	0.705	0.737	0.437	0.294	0.674	0.907
Y fixed	0.971	0.878	0.887	0.765	1.38	0.441	0.311	0.803	0.927
pThr fixed	0.772	1.1	0.808	0.932	0.441	0.482	0.346	0.752	0.776
pTyr fixed	0.884	1.13	1.01	0.71	0.83	0.425	0.32	0.641	0.809

TGFBR2, construct: aa190-end (from UniProt P37173)
relative phosphorylation
Settings	at +1	at +2	at +3	at +4	at -1	at -2	at -3	at -4	at -5
A fixed	0.597	1.09	0.846	0.874	0.646	0.441	0.835	0.987	1
D fixed	0.508	0.616	0.509	0.57	0.715	4.02	1.25	1.01	0.775
E fixed	0.77	0.466	0.485	0.529	0.775	5.47	1.24	0.907	0.713
F fixed	1.27	0.826	1.04	0.789	1.02	0.412	0.859	0.952	0.97
G fixed	0.63	1.36	1.29	1.08	0.67	0.665	1.05	1.08	1.11
H fixed	0.872	1.16	1.18	1.09	1.04	0.478	0.882	1.13	1.1
I fixed	1.69	1.1	1.05	1.06	0.757	0.327	0.748	0.851	0.9
K fixed	0.531	1.26	1.12	1.43	1.03	0.447	0.855	0.91	1.2
L fixed	1.32	0.584	1.07	0.839	1.38	0.366	0.717	0.814	0.901
M fixed	2.09	0.826	0.922	0.919	1.34	0.484	0.907	0.872	0.809
N fixed	0.801	0.891	0.941	0.85	0.812	0.877	0.982	1.08	0.908
P fixed	0.271	0.89	1.12	1.33	1.1	0.365	1.09	1	0.95
Q fixed	1.36	1.08	0.778	0.932	1.01	0.598	0.985	0.898	0.848
R fixed	0.834	1.36	1.32	1.23	0.911	0.886	1.72	1	1.17
V fixed	1.36	1.18	1.01	0.964	1.11	0.332	0.794	0.897	0.933
W fixed	0.946	1.29	1.18	1.47	1.19	0.419	1.12	1.59	1.58
Y fixed	1.14	1.02	1.15	1.06	1.49	0.41	0.973	1.02	1.13
pThr fixed	1.55	0.529	0.488	0.539	0.594	1.2	0.884	0.863	0.765
pTyr fixed	0.53	0.432	0.685	0.483	0.951	0.441	0.778	0.63	0.746

DYRK1B, construct: Full length (from UniProt Q9Y463)
relative phosphorylation
Settings	at +1	at +2	at +3	at +4	at -1	at -2	at -3	at -4	at -5
A fixed	0.436	0.893	0.7	0.79	1.08	2.23	0.812	0.901	0.902
D fixed	0.147	0.891	0.762	0.879	0.607	0.261	0.56	1.58	0.658
E fixed	0.161	0.8	0.932	0.829	0.626	0.28	0.445	0.719	0.554
F fixed	0.182	1.26	1.04	1.68	0.605	0.346	0.407	0.645	0.816
G fixed	0.957	0.824	1	0.925	1.14	0.889	1.33	0.933	1.15
H fixed	0.249	1.16	1.37	1.11	0.926	0.456	0.748	0.837	1.23
I fixed	0.239	1.26	0.987	1.14	0.495	0.727	0.32	0.607	0.956
K fixed	0.469	0.653	0.621	0.808	1.6	0.623	0.983	1.22	1.5
L fixed	0.222	1.28	1.25	1.1	0.747	0.926	0.491	0.756	0.785
M fixed	0.71	1.06	1.22	1.32	1.04	0.729	0.513	0.718	0.721
N fixed	0.21	1.02	0.991	0.902	0.86	0.806	0.712	0.806	0.903
P fixed	11	0.972	2.32	0.904	1.66	2.48	1.04	1.01	0.988
Q fixed	0.265	0.893	0.88	0.9	1.12	0.584	0.73	0.824	0.851
R fixed	0.947	0.77	0.713	0.811	1.93	3.56	5.96	3.05	2.61
V fixed	0.448	1.24	0.706	0.854	0.672	0.944	0.373	0.544	0.599
W fixed	0.241	1.02	0.742	1.06	0.853	0.723	0.539	0.865	0.8
Y fixed	0.161	1.01	0.77	0.994	1.02	0.43	1.03	0.987	0.983
pThr fixed	0.476	1.01	0.551	0.927	0.454	0.594	0.577	0.891	0.802
pTyr fixed	0.537	0.813	0.705	0.961	0.76	0.433	0.559	0.672	0.849

SNRK, construct: aa1-505 (from UniProt Q9NRH2)
relative phosphorylation
Settings	at +1	at +2	at +3	at +4	at -1	at -2	at -3	at -4	at -5
A fixed	0.817	0.313	0.573	0.725	0.876	1.27	0.886	1.12	1.07
D fixed	0.421	0.215	0.614	0.532	0.73	0.301	0.279	0.572	0.568
E fixed	0.544	0.156	0.303	0.474	0.899	0.344	0.267	0.65	0.514
F fixed	1.81	3.56	2.34	1.08	0.944	1.31	0.898	0.944	1.27
G fixed	0.424	0.196	0.608	0.721	0.813	0.721	0.617	1.06	0.957
H fixed	0.863	0.998	1.16	0.969	1.1	1.47	1.04	1.15	1.1
I fixed	0.829	0.912	0.61	1.16	0.811	0.587	0.631	0.861	0.921
K fixed	1.09	0.431	0.691	1	1.06	1.12	1.99	1.42	1.31
L fixed	1.05	1.36	0.88	1.78	1.3	0.616	0.9	0.94	0.815
M fixed	1.4	1.34	0.934	1.18	1.31	0.91	0.979	1.03	0.937
N fixed	0.916	0.5	1.11	0.965	0.864	1.11	0.654	0.824	0.883
P fixed	0.171	0.276	0.354	1.02	0.823	0.426	0.613	0.748	0.807
Q fixed	1.35	0.567	0.661	1.16	1.08	1.14	0.908	0.942	0.89
R fixed	1.63	0.865	1.1	1.06	1.45	2.44	4.04	1.5	1.69
V fixed	0.936	0.585	0.531	0.924	0.93	0.78	0.498	0.911	0.996
W fixed	1.27	2.4	2.19	1.29	0.964	1.11	0.952	1.18	1.23
Y fixed	1.48	2.32	2.35	0.952	1.05	1.34	0.85	1.15	1.05
pThr fixed	0.702	0.42	0.371	0.477	0.913	0.613	0.526	0.7	0.726
pTyr fixed	0.777	0.522	0.548	0.425	1.03	0.512	0.522	0.735	0.73
